Source: IntAct's records for PubMed 20969867
Blank lines part the entries; values can stand above or below the substance they belong to.

Assays:
kmt2a_human KMT2A [1] = biological target: kmt2a_human KMT2A (UniProt Q03164)
kmt2a_human KMT2A [2] = biological target: kmt2a_human KMT2A (UniProt Q03164); remark: listed apart in the source
kmt2a_human KMT2A [3] = biological target: kmt2a_human KMT2A (UniProt Q03164); remark: listed apart in the source
kmt2a_human KMT2A [4] = biological target: kmt2a_human KMT2A (UniProt Q03164); remark: listed apart in the source
kmt2a_human KMT2A [5] = biological target: kmt2a_human KMT2A (UniProt Q03164); remark: listed apart in the source
kmt2a_human KMT2A [6] = biological target: kmt2a_human KMT2A (UniProt Q03164); remark: listed apart in the source
kmt2a_human KMT2A [7] = biological target: kmt2a_human KMT2A (UniProt Q03164); remark: listed apart in the source

Sequence of kmt2a_human KMT2A (Q03164 whole entry): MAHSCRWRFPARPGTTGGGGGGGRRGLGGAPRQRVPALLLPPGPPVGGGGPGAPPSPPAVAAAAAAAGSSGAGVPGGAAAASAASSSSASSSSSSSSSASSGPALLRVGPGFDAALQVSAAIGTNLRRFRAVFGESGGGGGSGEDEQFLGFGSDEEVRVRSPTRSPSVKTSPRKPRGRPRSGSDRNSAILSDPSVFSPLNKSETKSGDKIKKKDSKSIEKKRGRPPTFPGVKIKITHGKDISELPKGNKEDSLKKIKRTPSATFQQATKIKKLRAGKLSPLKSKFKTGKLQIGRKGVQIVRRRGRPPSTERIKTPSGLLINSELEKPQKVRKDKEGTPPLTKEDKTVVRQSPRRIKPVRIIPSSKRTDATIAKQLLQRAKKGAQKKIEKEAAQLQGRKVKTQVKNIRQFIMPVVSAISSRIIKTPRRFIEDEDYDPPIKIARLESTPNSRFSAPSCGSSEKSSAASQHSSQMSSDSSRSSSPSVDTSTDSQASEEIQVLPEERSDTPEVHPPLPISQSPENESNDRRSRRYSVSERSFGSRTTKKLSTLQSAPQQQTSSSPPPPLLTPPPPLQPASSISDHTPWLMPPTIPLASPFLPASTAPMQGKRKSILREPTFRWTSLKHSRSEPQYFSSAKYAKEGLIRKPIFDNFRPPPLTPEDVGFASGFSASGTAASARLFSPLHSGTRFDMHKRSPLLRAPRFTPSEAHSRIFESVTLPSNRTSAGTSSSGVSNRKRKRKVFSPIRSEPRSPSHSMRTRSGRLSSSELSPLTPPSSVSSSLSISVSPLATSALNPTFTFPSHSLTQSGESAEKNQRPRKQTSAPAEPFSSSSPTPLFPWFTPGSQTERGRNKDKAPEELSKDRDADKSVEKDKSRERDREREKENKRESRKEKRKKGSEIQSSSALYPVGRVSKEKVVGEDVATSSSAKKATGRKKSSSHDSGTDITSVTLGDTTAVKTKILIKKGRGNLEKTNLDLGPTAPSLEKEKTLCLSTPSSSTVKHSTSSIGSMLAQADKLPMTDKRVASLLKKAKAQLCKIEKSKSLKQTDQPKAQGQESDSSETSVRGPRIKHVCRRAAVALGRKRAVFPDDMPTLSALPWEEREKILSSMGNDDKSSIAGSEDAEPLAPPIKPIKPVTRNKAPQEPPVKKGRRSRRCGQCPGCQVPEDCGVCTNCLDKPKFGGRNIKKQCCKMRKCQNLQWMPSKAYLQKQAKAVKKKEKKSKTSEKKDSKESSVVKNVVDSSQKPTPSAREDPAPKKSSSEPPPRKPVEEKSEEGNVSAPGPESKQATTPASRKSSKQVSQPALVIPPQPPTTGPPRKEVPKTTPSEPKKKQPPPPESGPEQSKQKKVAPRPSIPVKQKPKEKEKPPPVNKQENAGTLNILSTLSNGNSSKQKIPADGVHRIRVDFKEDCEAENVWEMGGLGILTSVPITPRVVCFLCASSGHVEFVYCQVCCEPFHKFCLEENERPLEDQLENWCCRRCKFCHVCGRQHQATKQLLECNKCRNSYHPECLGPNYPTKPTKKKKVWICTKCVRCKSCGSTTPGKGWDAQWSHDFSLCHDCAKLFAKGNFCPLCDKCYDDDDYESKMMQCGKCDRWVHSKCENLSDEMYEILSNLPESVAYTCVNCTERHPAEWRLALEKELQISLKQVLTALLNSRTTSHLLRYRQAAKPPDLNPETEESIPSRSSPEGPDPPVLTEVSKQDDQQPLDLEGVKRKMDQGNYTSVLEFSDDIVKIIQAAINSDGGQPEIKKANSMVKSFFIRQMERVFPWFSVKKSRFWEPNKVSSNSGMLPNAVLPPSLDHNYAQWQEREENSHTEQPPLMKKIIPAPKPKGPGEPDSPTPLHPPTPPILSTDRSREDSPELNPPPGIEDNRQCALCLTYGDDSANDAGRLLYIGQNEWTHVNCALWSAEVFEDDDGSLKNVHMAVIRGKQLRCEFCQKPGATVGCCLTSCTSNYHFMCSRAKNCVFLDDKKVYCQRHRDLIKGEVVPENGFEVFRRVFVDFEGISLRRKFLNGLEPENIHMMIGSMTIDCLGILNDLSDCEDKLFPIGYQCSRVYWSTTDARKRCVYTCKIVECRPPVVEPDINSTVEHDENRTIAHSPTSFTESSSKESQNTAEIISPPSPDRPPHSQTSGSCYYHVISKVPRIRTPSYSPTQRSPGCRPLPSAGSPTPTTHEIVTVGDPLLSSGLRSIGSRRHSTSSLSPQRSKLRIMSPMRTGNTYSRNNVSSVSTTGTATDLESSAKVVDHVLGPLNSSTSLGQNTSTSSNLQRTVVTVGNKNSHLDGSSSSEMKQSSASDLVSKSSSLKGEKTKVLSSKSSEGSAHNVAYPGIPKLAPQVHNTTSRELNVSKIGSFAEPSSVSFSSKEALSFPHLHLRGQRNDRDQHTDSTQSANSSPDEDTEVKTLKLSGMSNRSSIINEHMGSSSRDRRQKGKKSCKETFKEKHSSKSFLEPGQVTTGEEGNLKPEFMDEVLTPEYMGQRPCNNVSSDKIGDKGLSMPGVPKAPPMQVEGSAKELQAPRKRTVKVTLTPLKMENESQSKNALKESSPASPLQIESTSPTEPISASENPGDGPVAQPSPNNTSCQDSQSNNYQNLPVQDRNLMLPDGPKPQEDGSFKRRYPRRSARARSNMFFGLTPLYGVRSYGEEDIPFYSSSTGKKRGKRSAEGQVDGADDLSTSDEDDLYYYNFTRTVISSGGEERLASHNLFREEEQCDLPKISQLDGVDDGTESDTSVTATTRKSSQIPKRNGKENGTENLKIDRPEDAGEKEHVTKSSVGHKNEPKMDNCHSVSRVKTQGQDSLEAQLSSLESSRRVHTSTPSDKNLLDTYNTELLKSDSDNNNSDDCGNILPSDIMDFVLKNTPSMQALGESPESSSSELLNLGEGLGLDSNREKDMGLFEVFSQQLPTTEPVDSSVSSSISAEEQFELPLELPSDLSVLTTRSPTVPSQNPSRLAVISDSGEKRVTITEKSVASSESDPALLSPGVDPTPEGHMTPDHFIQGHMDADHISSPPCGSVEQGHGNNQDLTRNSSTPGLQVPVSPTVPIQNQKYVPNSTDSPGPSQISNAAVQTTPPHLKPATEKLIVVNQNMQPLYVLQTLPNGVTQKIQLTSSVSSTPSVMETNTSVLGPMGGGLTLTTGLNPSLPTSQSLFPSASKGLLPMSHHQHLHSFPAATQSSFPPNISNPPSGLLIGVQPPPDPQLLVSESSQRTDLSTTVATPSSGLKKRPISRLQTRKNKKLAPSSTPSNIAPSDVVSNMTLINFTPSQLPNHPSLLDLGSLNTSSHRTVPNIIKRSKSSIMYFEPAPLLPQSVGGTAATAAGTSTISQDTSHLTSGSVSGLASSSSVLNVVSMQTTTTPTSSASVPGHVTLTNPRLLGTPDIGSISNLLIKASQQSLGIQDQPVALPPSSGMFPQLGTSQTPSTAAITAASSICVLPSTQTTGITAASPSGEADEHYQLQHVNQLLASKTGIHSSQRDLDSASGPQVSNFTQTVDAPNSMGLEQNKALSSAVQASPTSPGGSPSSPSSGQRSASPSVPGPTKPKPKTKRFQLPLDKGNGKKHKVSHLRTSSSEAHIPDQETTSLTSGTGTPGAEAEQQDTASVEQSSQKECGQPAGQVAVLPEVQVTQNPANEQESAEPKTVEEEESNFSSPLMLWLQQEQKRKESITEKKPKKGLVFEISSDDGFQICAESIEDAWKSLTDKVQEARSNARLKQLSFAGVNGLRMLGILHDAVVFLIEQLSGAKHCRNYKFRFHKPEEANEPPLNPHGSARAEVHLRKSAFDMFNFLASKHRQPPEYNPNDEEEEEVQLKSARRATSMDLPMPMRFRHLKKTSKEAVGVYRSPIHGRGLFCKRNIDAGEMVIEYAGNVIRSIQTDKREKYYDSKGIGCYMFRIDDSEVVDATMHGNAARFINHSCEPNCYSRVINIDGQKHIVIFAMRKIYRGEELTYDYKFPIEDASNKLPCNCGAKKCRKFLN

Substance: Histone lysine acetyltransferase CREBBP (Mus musculus), P45481 F612A
effect of a mutation on the interaction (kmt2a_human KMT2A [2]): decreasing interaction

Substance: Histone lysine acetyltransferase CREBBP (Mus musculus), P45481 R668A
effect of a mutation on the interaction (kmt2a_human KMT2A [3]): decreasing interaction

Substance: Histone lysine acetyltransferase CREBBP (Mus musculus), P45481 R624A
effect of a mutation on the interaction (kmt2a_human KMT2A [4]): decreasing interaction

Substance: Histone lysine acetyltransferase CREBBP (Mus musculus), P45481 L628A
effect of a mutation on the interaction (kmt2a_human KMT2A [5]): disrupting interaction | effect of a mutation on the interaction (kmt2a_human KMT2A [6]): decreasing interaction

Further lines, results first:

effect of a mutation on the interaction (kmt2a_human KMT2A [1]): decreasing interaction
Substance: Histone lysine acetyltransferase CREBBP (Mus musculus), P45481 L664A

effect of a mutation on the interaction (kmt2a_human KMT2A [7]): decreasing interaction
Substance: Histone lysine acetyltransferase CREBBP (Mus musculus), P45481 Y631A
